{"source": "patent US20020132773A1", "about": "“Methods for reducing fat by administration of adiponectin” (Oklahoma Medical Research Foundation, priority 2001, published 2002)", "key": {"BMS2 cells": {"system": "BMS2 cells", "test": "Adipocyte differentiation of BMS2 cells", "type": "cell-based", "settings": "for fat cell formation (adipogenesis) of BMS2 cells: 5 μg/ml insulin and 0.5 mM MIBX, 10 days, proteins 10 μg/ml, PGE2 and Dup-697 1×10^-6 M, microscopy", "procedure": "(§1) Differentiation of BMS2 cells to adipocytes was achieved by treatment with 5 μg/ml insulin and 0.5 mM MIBX for 10 days. Differentiation of MS5 cells to adipocytes was achieved by treatment with 5 μg/ml insulin alone for 15 days. Cultures were treated with adiponectin, PGE2 or Dup-697 from the time of culture initiation. At the end of this period, cultures were photographed and then stained with Nile red to detect lipid accumulation indicative of adipocyte differentiation. The extent of differentiation was estimated by flow cytometry (FACScan; Becton-Dickinson, San Jose, Calif.)."}, "3T3-L1 cells": {"system": "3T3-L1 cells", "test": "Adipocyte generation by 3T3-L1 cell line", "type": "cell-based", "settings": "insulin as only inducing agent; adiponectin 10 μg/ml, PGE2 1×10^-6 M", "source_text": "Normal human bone marrow was collected by biopsy from the posterior iliac crest of healthy young volunteers with informed consent, and used for immunohistchemical analysis of adiponectin. BMS2 and 3T3-L1 cells were maintained in D-MEM (high glucose) supplemented with 10% fetal calf serum (FCS) (HyClone, Logan, Utah). MS5 cells were maintained in α-MEM medium supplemented with 10% FCS. Balb/c mice at 3-6 weeks old: were obtained from Charles Rivers Breeding Labatories (Wilmington, Me.). B6,129S-^Ptgs2tm1Jed (COX-2^+/−) mice and C57BL/6 mice (3-5 weeks old) were purchased from the Jackson Laboratory (Bar Harbor, Me.). High mortality and unavailability precluded use of homozygous COX^−/− animals in these experiments, but a single targeted allele abrogated preadipocyte responses to adiponectin.\nBone marrow cultures represent a complex mixture of hematopoietic cells that mature through interactions with an adherent stromal layer composed of fibroblasts, adipocytes, macrophages and endothelial cells."}, "[1]": {"system": "C/EBP-α and PPAR-γ in BMS2 preadipocytes", "test": "Adipocyte gene expression analysis (Northern blot) in BMS2 cells", "type": "cell-based", "procedure": "(§2) Poly(A)^+mRNA was prepared from the indicated samples using oligo(dT) columns (Ambion Inc, Austin, Tex.). Aliquots oifpoly(A)^+ mRNA (2 μg) were denatured in formamide and formaldehyde at 65 C and electrophoresed on formaldehyde-containing agarose gels. After capillary transfer to nylon membranes (MSI, Westbourough, Mass.), the RNA was crosslinked by UV exposure. cDNA probes for CCAAT/enhancer binding protein-α(C/EBP-α) and adipocyte P2 (aP2) were obtained from ResGen™ Invitrogen (Huntsville, Ala.) and American Type Culture Collection (Manassas, Va.) respectively. Probes with sizes corresponding to PPAR-γ, COX-1 and COX-2 were prepared as PCR products and all probes were radiolabeled with [α-^32P]dCTP using the random prime labeling system (Redi Prime™ II) purchased from Amersham Pharmacia Biotech.\nas §1"}, "[2]": {"system": "bone marrow cells of normal Balb/c mice (LTBMC)", "test": "Long-term bone marrow cultures (LTBMC, Dexter cultures)", "type": "cell-based, mouse", "procedure": "LTBMC that support formation of myeloid cells (Dexter cultures) were initiated and maintained by published methods (Dexter, T. M. and Testa, N. G. Methods Cell Biol. 14:387-405 (1976)). Bone marrow cells of normal Balb/c mice (12×10^6) were cultured in 25-cm^2 flasks in 5% CO2 at 33 C. The medium consisted of α-MEM supplemented with 100 nM hydrocortisone and 20% horse serum (HyClone). Cultures were treated with adiponectin or bovine serum albumin (BSA) beginning at culture initiation and thereafter weekly for 6 weeks. In some experiments, adiponectin was omitted from the media after 6 weeks of culture, and maintained for another 6 weeks with medium alone."}, "MS5 cells": {"system": "MS5 cells", "test": "Adipocyte differentiation of MS5 cells", "type": "cell-based", "settings": "5 μg/ml insulin, 15 days; adiponectin 10 μg/ml", "procedure": "as §1"}, "[3]": {"system": "MS5 or BMS2 stromal cell clones", "test": "RT-PCR / Northern blot of transcripts in adiponectin-treated preadipocytes", "type": "cell-based", "procedure": "Total RNA was isolated from MS5 or BMS2 cells treated with adiponectin for various periods using TRIzol Reagent (GIBCO-BRL, Grand Island, N.Y.) and suspended in DEPC-treated water. After treating total RNA with DNase (GIBCO-BRL), cDNA was made using random hexamers and moloney murine leukemia virus reverse transcriptase (GIBCO-BRL). For PCR, 10 μl of the RT mixtures described above were added to PCR buffer containing 1.5 mM MgCl2, 1 U Taq polymerase (Perkin Elmer, Norwalk, Conn.), 2 mM each dNTP, and relevant sense and antisense primers. The DNA in the PCR reaction mixtures was amplified using 25 to 35 cycles of 94 C for 1 min, 55 C for 2 min and 72 C for 3 min. The oligonucleotide primers used for these reactions were 5′-[…]-3′ (SEQ ID NO:5) and 5′-[…]-3′ (SEQ ID NO:6) for COX-2, and 5′-[…]-3′ (SEQ ID NO:7) and 5′-[…]-3′ (SEQ ID NO:8) for COX-1. Primers for TNF-α, TGF-β, interferon (IFN)-α/β/γ, and limitin were also prepared and used in this study.\nas §2"}, "MS5 or BMS2 cells": {"system": "MS5 or BMS2 cells", "test": "Enzyme-immunoassay for PGE2 in culture supernatants", "type": "cell-based", "settings": "confluent BMS2 or MS5 cells, versus BSA", "procedure": "Confluent MS5 or BMS2 cells prepared in 24-well plates were incubated in 500 μl of media with or without adiponectin. Supernatants from these cultures were examined for the presence of PGE2 using an enzyme-immunoassay kit purchased from Cayman Chemical."}, "[4]": {"system": "normal C57BL/6 bone marrow", "test": "Adherent bone marrow cell cultures, normal mice", "type": "cell-based, mouse", "settings": "treated weekly for 6 weeks", "procedure": "(§3) Adherent bone marrow cell cultures were established with heterozygous knockout COX-2^+/− mice or normal C57BL/6 mice. BM cells were suspended at 2×10^5 per 6 ml of Dexter culture media and seeded in 25-cm^2 flasks. This cell concentration gives rise to adherent stromal layers without myeloid cell growth. Cultures were treated with adiponecitin or BSA at the time of culture initiation and weekly thereafter for 6 weeks."}, "[5]": {"system": "bone marrow cells of heterozygous knockout COX-2+/- mice", "test": "Adherent bone marrow cell cultures, COX-2+/- mice", "type": "cell-based, mouse", "settings": "cells derived from COX-2+/- animals, treated weekly for 6 weeks", "procedure": "as §3"}, "[6]": {"system": "CFU-granulocyte-macrophage, CFU-macrophage, CFU-granulocyte, BFU-erythroid, mixed erythroid-myeloid CFU", "settings": "cited from earlier work"}, "myeloid cell lines": {"system": "myeloid cell lines", "settings": "cited from earlier work"}, "cultured macrophages": {"system": "cultured macrophages", "settings": "cited from earlier work"}, "[7]": {"settings": "BMS2 cells, Nile red staining, flow cytometry"}}, "note": "“Also recorded” adds a separate entry of the source.", "data": [{"molecule": "CCCCC[C@H](O)/C=C/[C@H]1[C@H](O)CC(=O)[C@@H]1C/C=C\\CCCC(=O)O", "note": "[PGE2, prostaglandin E2, reference compound]", "values": [{"measurement": "fat cell formation (adipogenesis) of BMS2 cells", "setting": "BMS2 cells", "result": "blocked"}, {"measurement": "lipid accumulation induced by insulin and MIBX", "setting": "BMS2 cells; [7]", "result": "completely blocked"}, {"measurement": "generation of adipocytes by 3T3-L1 line", "setting": "3T3-L1 cells", "result": "minimally affected"}, {"measurement": "increases of C/EBP-α and PPAR-γ expression induced by insulin and MIBX", "setting": "[1]", "result": "strongly inhibited"}]}, {"molecule": "adiponectin: adipocyte-specific secretory protein of 244 amino acid residues; human recombinant peptide leader deficient protein, 32 kD monomer with multimers (protein) ETTTQGPGVLLPLPKGACTGWMAGIPGHPGHNGAPGRDGRDGTPGEKGEKGDPGLIGPKGDIGETGVPGAEGPRGFPGIQGRKGEPGEGAYVYRSAFSVGLETYVTIPNMPIRFTKIFYNQQNHYDGSTGKFHCNIPGLYYFAYHITVYMKDVKVSLFKKDKAMLFTYDQYQENNVDQASGSVLLHLEVGDQVWLQVYGEGERNGLYADNDNDSTFTGFLLYHDTN", "values": [{"measurement": "fat cell formation in LTBMC", "setting": "[2]; adiponectin 10 μg/ml in medium, from culture initiation and weekly for 6 weeks", "result": "completely inhibited"}, {"measurement": "influence on myelopoiesis in LTBMC", "setting": "[2]; adiponectin 10 μg/ml, conditions that favor myeloid cell production", "result": "no influence"}, {"measurement": "reversibility of the negative influence on fat cell formation", "setting": "[2]; adiponectin omitted after 6 weeks, another 6 weeks with medium alone", "result": "reversible"}, {"measurement": "fat cell formation (adipogenesis) of BMS2 cells", "setting": "BMS2 cells", "result": "substantial suppression"}, {"measurement": "fat cell formation (adipogenesis) of BMS2 cells", "setting": "BMS2 cells; listed as Adiponectin", "result": "blocked adipogenesis"}, {"measurement": "lipid accumulation induced by insulin and MIBX", "setting": "BMS2 cells; [7]", "result": "completely blocked"}, {"measurement": "response (block of lipid accumulation) to adiponectin with COX-2 inhibitor included", "setting": "BMS2 cells; BMS2 cells, Nile red staining, flow cytometry, Dup-697 1×10^-6 M", "result": "substantially blocked"}, {"measurement": "inhibition of BMS2 fat cell formation by adiponectin with Dup-697 present", "setting": "BMS2 cells; insulin and MIBX, COX-2 inhibitor Dup-697 1×10^-6 M present", "result": "not observed"}, {"measurement": "suppression of adipocyte differentiation of MS5 clone", "setting": "MS5 cells", "result": "substantial suppression"}, {"measurement": "generation of adipocytes by 3T3-L1 line", "setting": "3T3-L1 cells", "result": "only slightly inhibited; also recorded: minimally affected"}, {"measurement": "basal expression of TGF-β, interferon-α/β/γ and limitin", "setting": "[3]", "result": "not obviously influenced"}, {"measurement": "transcripts corresponding to TNF-α or interferon-β", "setting": "[3]; MS5 cells, adiponectin added to cultures", "result": "not detectable"}, {"measurement": "transcripts for COX-2", "setting": "[3]; MS5 or BMS2 stromal cell clones, confirmed by Northern blot", "result": "upregulated"}, {"measurement": "increase in PGE2 secretion", "setting": "MS5 or BMS2 cells", "result": "approximately two-fold"}, {"measurement": "adipogenesis in adherent bone marrow cell cultures", "setting": "[4]", "result": "blocked adipogenesis"}, {"measurement": "effect on adipogenesis in adherent bone marrow cell cultures", "setting": "[5]", "result": "minimum effect; also recorded: negligible"}, {"measurement": "increases of C/EBP-α and PPAR-γ expression induced by insulin and MIBX", "setting": "[1]", "result": "strongly inhibited"}, {"measurement": "effect of adiponectin on C/EBP-α and PPAR-γ expression with Dup-697", "setting": "[1]; insulin and MIBX, Dup-697 1×10^-6 M", "result": "abrogated"}, {"measurement": "colony formation from CFU-granulocyte-macrophage, CFU-macrophage and CFU-granulocyte", "setting": "[6]", "result": "suppresses colony formation"}, {"measurement": "colony formation of burst-forming units-erythroid or mixed erythroid-myeloid CFU", "setting": "[6]", "result": "no effect"}, {"measurement": "number of myeloid cell lines whose proliferation is inhibited", "setting": "myeloid cell lines", "result": "4 of 9"}, {"measurement": "lipopolysaccharide-induced production of tumor necrosis factor-α by cultured macrophages", "setting": "cultured macrophages", "result": "significantly inhibits"}, {"measurement": "phagocytic activity of cultured macrophages", "setting": "cultured macrophages", "result": "significantly inhibits"}]}]}
